# Reference: PMC10543557
# Molecular target: FAM-labeled recombinant full-length SARS-CoV-2 Nsp1 (SARS-CoV-2-Nsp1_C-51-V) (SARS-CoV-2) (UniProt P0DTD1)
# Assay: fluorescence polarisation
substance,measurement,value
40S ribosomal subunit purified from rabbit reticulocyte lysate (from UniProt G1TNM3 1-243; G1SWM1 1-292) (complex),Kd,30 nM
